From US20210132068A1

Molecular target: CD20 on CD20+ Daudi lymphoma cells (UniProt P11836)
Assay: flow cytometry on CD20+ Daudi lymphoma cells, 30 minutes at 4° C.

UniProt P11836, sequence (P11836 whole entry): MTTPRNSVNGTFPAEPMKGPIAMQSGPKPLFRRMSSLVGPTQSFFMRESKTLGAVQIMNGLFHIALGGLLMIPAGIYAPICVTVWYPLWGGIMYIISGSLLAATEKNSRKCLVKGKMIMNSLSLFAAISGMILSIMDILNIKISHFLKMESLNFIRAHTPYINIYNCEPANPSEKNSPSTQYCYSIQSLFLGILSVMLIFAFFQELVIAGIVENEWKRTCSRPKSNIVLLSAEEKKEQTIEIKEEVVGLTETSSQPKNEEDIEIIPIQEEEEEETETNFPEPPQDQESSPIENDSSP

% positive cells: 95%
Substance: FITC-rituximab (antibody)
